# From patent US20080267974A1 (SCHERING, published 2008)
# Substitutions are numbered along the chain they refer to. Where “and” joins values, the source holds several entries; their conditions need not be identical. Equal values may be shown once. Read-outs that look alike come from different tables or passages of the source.
# B1: MAb 812 (antibody, V domains shown)
# VH: EVQLLESGGGLIQPGGSLRLSCAASGFTVSSNYMSWVRQAPGKGLEWVSVIYSGGRTYYADSVKGRFTISRDSSKNTLYLQMNSLRAEDTAVYYCARNYYGSTYDYWGQGTLVTVSS
# VL: EIVLTQSPVTLSVPPGERASLSCRASQNIYTAVAWYQQKPGQAPRLLIYGASTRATGIPARFSGGGSGTDYTLTISSLESEDFAVYHCQQYFSWPLTFGGGTKLEIK
# notes: IgG1/kappa, CHO; also called H1192/L308
# B2: MAb 1896 (antibody, V domains shown)
# VH: EVQLVESGGGLIQPGGSLRLSCAVSGLNVSRDYMSWVRQAPGKGLEWISVIYRGGATMYADSVKGRFTISRDTSKNTVFLQMSRLKVADTAVYYCARNYYGSTLDYWGQGTLVTVSS
# VL: B1 VL with G50N, Y91W, F92H
# notes: IgG1/kappa, CHO; also called H1685/L459
# B3: MAb 1780 (antibody, V domains shown)
# VH: B2 VH
# VL: B1 VL with Y91W, F92H
# notes: IgG1/kappa, CHO; also called H1685/L332
# B4: MAb 1895 (antibody, V domains shown)
# VH: B2 VH with L104H
# VL: B1 VL with G50N, Y91W, F92H
# notes: IgG1/kappa, CHO; also called H1596/L459
# B5: MAb 2071 (antibody, V domains shown)
# VH: B2 VH with A56V
# VL: B1 VL with V9A, P14S, G50N, S52A, Y91W, F92H
# notes: IgG1/kappa, CHO; also called H1844/L472
# B6: MAb 1777 (antibody, V domains shown)
# VH: B2 VH with L104I
# VL: B1 VL with Y91W, F92H
# notes: IgG1/kappa, CHO; also called H1684/L332
# B7: MAb 815 (antibody, V domains shown)
# VH: B1 VH
# VL: B1 VL with F92H, S93A
# notes: IgG1/kappa, CHO; also called H1192/L311
# B8: MAb 1874 (antibody, V domains shown)
# VH: EVQLLESGGGLIQPGGSLRLSCAASGFTVGNNYMSWVRQAPGKGLEWVSVIYSAGSTYYADSVKGRFIISRDNSKDTVYLQMNSLRVDDTAVYYCARNYYGSTMDYWGQGTLVTVSS
# VL: B1 VL with Y91W, F92H
# notes: IgG1/kappa, CHO; also called H1725/L332
# B9: MAb 2019 (antibody, V domains shown)
# VH: B2 VH with A56V
# VL: B1 VL with G50N, Y91W, F92H
# notes: IgG1/kappa, CHO; also called H1844/L459
# B10: MAb 1775 (antibody, V domains shown)
# VH: B2 VH with L104M
# VL: B1 VL with Y91W, F92H
# notes: IgG1/kappa, CHO; also called H1687/L332
# B11: MAb 813 (antibody, V domains shown)
# VH: B1 VH
# VL: B1 VL with F92M
# notes: IgG1/kappa, CHO; also called H1192/L309
# B12: MAb 855 (antibody, V domains shown)
# VH: B1 VH
# VL: B1 VL with Y91W, F92H
# notes: IgG1/kappa, CHO; also called H1192/L332
# B13: MAb 1852 (antibody, V domains shown)
# VH: B8 VH with M104L
# VL: B1 VL with Y91W, F92H
# notes: IgG1/kappa, CHO; also called H1729/L332
# B14: MAb 1714 (antibody, V domains shown)
# VH: B2 VH with L104F
# VL: B1 VL with Y91W, F92H
# notes: IgG1/kappa, CHO; also called H1678/L332
# B15: MAb 2060 (antibody, V domains shown)
# VH: B2 VH with A56V
# VL: B1 VL with V9A, P14S, G50N, Y91W, F92H
# notes: IgG1/kappa, CHO; also called H1844/L471
# B16: MAb 1371 (antibody, V domains shown)
# VH: B2 VH with L104H
# VL: B1 VL with Y91W, F92H
# notes: IgG1/kappa, CHO; also called H1596/L332
# B17: MAb 1851 (antibody, V domains shown)
# VH: B8 VH with M104F
# VL: B1 VL with Y91W, F92H
# notes: IgG1/kappa, CHO; also called H1728/L332
# B18: MAb 1850 (antibody, V domains shown)
# VH: B8 VH with M104H
# VL: B1 VL with Y91W, F92H
# notes: IgG1/kappa, CHO; also called H1727/L332
# B19: MAb 2090 (antibody, V domains shown)
# VH: B2 VH with G54I
# VL: B1 VL with V9A, P14S, G50N, S52A, Y91W, F92H
# notes: IgG1/kappa, CHO; also called H1813/L472
# Legend:
# [1] = biological target: T1, tumor necrosis factor alpha (TNFα) (human, UniProt P01375 77-233); assay: affinity by IC50 ELISA (so named in paragraph 380)
# T1 sequence (P01375 77-233 limits assumed): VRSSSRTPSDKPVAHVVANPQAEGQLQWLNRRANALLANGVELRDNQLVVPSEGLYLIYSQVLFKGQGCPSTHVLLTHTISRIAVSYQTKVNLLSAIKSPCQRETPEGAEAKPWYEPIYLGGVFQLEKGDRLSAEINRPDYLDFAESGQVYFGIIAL
# [2] = biological target: T1, tumor necrosis factor alpha (TNFα); assay: Biacore (SPR); MAb captured by immobilised goat anti-human IgG polyclonal antibody, TNFα as analyte
# [3] = biological target: T1, tumor necrosis factor alpha (TNFα); assay: affinity by IC50 ELISA (so named in paragraph 380); remark: listed apart in the source
# [4] = biological target: T1, tumor necrosis factor alpha (TNFα); assay: affinity by IC50 ELISA (so named in paragraph 380); remark: listed apart in the source
# [5] = biological target: T1, tumor necrosis factor alpha (TNFα); assay: cell-based or functional assay
# [6] = biological target: T1, tumor necrosis factor alpha (TNFα); assay: affinity by IC50 ELISA (so named in paragraph 380); remark: listed apart in the source
# [7] = biological target: T1, tumor necrosis factor alpha (TNFα); assay: affinity by IC50 ELISA (so named in paragraph 380); remark: listed apart in the source
# [8] = biological target: T1, tumor necrosis factor alpha (TNFα); assay: affinity by IC50 ELISA (so named in paragraph 380); remark: listed apart in the source
# [9] = biological target: T1, tumor necrosis factor alpha (TNFα); assay: affinity by IC50 ELISA (so named in paragraph 380); remark: listed apart in the source
# [10] = biological target: T1, tumor necrosis factor alpha (TNFα); assay: affinity by IC50 ELISA (so named in paragraph 380); remark: listed apart in the source
molecule,measurement,setting,value
Humira® (antibody),Affinity,[1],0.09 nM
same,Ka,[2],3.31e+10 M⁻¹
same,Kd,[2],30.3 pM
B1,Affinity,[3],0.32 nM
same,Affinity,[4],0.32 nM
B2,"IC50, TNFα cytotoxicity assay (WEHI-13VAR cells)",[5],0.79 nM and 0.9 nM
same,Affinity,[3],0.08 nM
same,Affinity,[6],0.08 nM
same,Affinity,[7],0.08 nM
B3,"IC50, TNFα cytotoxicity assay (WEHI-13VAR cells)",[5],1.6 nM and 3.18 nM
same,Affinity,[3],0.23 nM
same,Affinity,[8],0.23 nM
same,Affinity,[6],0.23 nM
B4,"IC50, TNFα cytotoxicity assay (WEHI-13VAR cells)",[5],0.89 nM
same,Affinity,[3],0.09 nM
same,Affinity,[6],0.09 nM
B5,"IC50, TNFα cytotoxicity assay (WEHI-13VAR cells)",[5],0.03 nM and 0.04 nM
same,Affinity,[3],0.01 nM
same,Affinity,[9],0.01 nM
same,Ka,[2],1.77e+11 M⁻¹
same,Kd,[2],5.7 pM
same,koff,[2],3.91e-05 s⁻¹
same,kon,[2],6.92e+06 M⁻¹ s⁻¹
B6,"IC50, TNFα cytotoxicity assay (WEHI-13VAR cells)",[5],7 nM
same,Affinity,[3],0.18 nM
same,Affinity,[8],0.18 nM
B7,Affinity,[3],0.36 nM
same,Affinity,[4],0.36 nM
B8,Affinity,[3],0.38 nM
same,Affinity,[10],0.38 nM
B9,"IC50, TNFα cytotoxicity assay (WEHI-13VAR cells)",[5],0.3 nM
same,Affinity,[3],0.04 nM
same,Affinity,[7],0.04 nM
B10,"IC50, TNFα cytotoxicity assay (WEHI-13VAR cells)",[5],6.5 nM
same,Affinity,[3],0.22 nM
same,Affinity,[8],0.22 nM
B11,Affinity,[3],0.42 nM
same,Affinity,[4],0.42 nM
B12,"IC50, TNFα cytotoxicity assay (WEHI-13VAR cells)",[5],3.5 nM
same,Affinity,[3],0.25 nM
same,Affinity,[4],0.25 nM
B13,Affinity,[3],0.41 nM
same,Affinity,[10],0.41 nM
B14,"IC50, TNFα cytotoxicity assay (WEHI-13VAR cells)",[5],1.3 nM
same,Affinity,[3],0.16 nM
same,Affinity,[8],0.16 nM
B15,"IC50, TNFα cytotoxicity assay (WEHI-13VAR cells)",[5],0.14 nM
same,Affinity,[3],0.02 nM
same,Affinity,[9],0.02 nM
B16,"IC50, TNFα cytotoxicity assay (WEHI-13VAR cells)",[5],2 nM and 3.08 nM
same,Affinity,[3],0.2 nM
same,Affinity,[8],0.2 nM
same,Affinity,[6],0.2 nM
B17,Affinity,[3],0.26 nM
same,Affinity,[10],0.26 nM
B18,Affinity,[3],0.59 nM
same,Affinity,[10],0.59 nM
B19,"IC50, TNFα cytotoxicity assay (WEHI-13VAR cells)",[5],0.09 nM
same,Affinity,[3],0.02 nM
same,Affinity,[9],0.02 nM
same,Ka,[2],1.2e+11 M⁻¹
same,Kd,[2],8.4 pM
same,koff,[2],5.42e-05 s⁻¹
same,kon,[2],6.49e+06 M⁻¹ s⁻¹
